Data: FireProtDB (doi:10.1529/biophysj.106.099531)
Where “and” joins values, the source holds several entries; their conditions need not be identical. Equal values may be shown once.

Conditions: Pseudomonas aeruginosa (strain ATCC 15692 / DSM 22644 / CIP 104116 / JCM 14847 / LMG 12228 / 1C / PRS 101 / PAO1), pH 7.5, GdnHCl, Fluorescence, Tris 1 mM, NaCl 1.93 M, reversible: Yes, whole UniProt chain shown

B1: Azurin wild type, P00282 (protein)
chain: MLRKLAAVSLLSLLSAPLLAAECSVDIQGNDQMQFNTNAITVDKSCKQFTVNLSHPGNLPKNVMGHNWVLSTAADMQGVVTDGMASGLDKDYLKPDDSRVIAHTKLIGSGEKDSVTFDVSKLKEGEQYMFFCTFPGHSALMKGTLTLK
denaturant m value (20 °C): 5.53 kcal/mol/M | denaturant midpoint (higher = more stable) (20 °C): 1.74 M | unfolding free energy (20 °C): 9.63 kcal/mol | denaturant m value (-8 °C): 3.63 kcal/mol/M and 6.66 kcal/mol/M | denaturant midpoint (higher = more stable) (-8 °C): 1.79 M and 1.58 M | unfolding free energy (-8 °C): 6.89 kcal/mol and 10.5 kcal/mol | denaturant m value (-10 °C): 3.77 kcal/mol/M | denaturant midpoint (higher = more stable) (-10 °C): 1.73 M | unfolding free energy (-10 °C): 6.83 kcal/mol | denaturant m value (-12 °C): 3.85 kcal/mol/M and 6.98 kcal/mol/M | denaturant midpoint (higher = more stable) (-12 °C): 1.7 M and 1.5 M | unfolding free energy (-12 °C): 6.77 kcal/mol and 10.5 kcal/mol
